Source: paper PMC3326396 (Biochemistry, 2012)

Target: the molecule itself
Test: SEC

B1: N-terminal Strep2-(G4S)3-tagged PhaC purified from R. eutropha (enzyme, Ralstonia eutropha H16, UniProt P23608 2-589, looked up)
chain: ATGKGAAASTQEGKSQPFKVTPGPFDPATWLEWSRQWQGTEGNGHAAASGIPGLDALAGVKIAPAQLGDIQQRYMKDFSALWQAMAEGKAEATGPLHDRRFAGDAWRTNLPYRFAAAFYLLNARALTELADAVEADAKTRQRIRFAISQWVDAMSPANFLATNPEAQRLLIESGGESLRAGVRNMMEDLTRGKISQTDESAFEVGRNVAVTEGAVVFENEYFQLLQYKPLTDKVHARPLLMVPPCINKYYILDLQPESSLVRHVVEQGHTVFLVSWRNPDASMAGSTWDDYIEHAAIRAIEVARDISGQDKINVLGFCVGGTIVSTALAVLAARGEHPAASVTLLTTLLDFADTGILDVFVDEGHVQLREATLGGGAGAPCALLRGLELANTFSFLRPNDLVWNYVVDNYLKGNTPVPFDLLFWNGDATNLPGPWYCWYLRHTYLQNELKVPGKLTVCGVPVDLASIDVPTYIYGSREDHIVPWTAAYASTALLANKLRFVLGASGHIAGVINPPAKNKRSHWTNDALPESPQQWLAGAIEHHGSWWPDWTAWLAGQAGAKRAAPANYGNARYRAIEPAPGRYVKAKA
stoichiometry N: 2

B2: N-terminal-Strep2-(G4S)3-tagged PhaC purified from E. coli (enzyme, Ralstonia eutropha H16, UniProt P23608 2-589, looked up)
chain: B1 chain
stoichiometry N: 2
